Reference: article PMC3397958, “Molecular Characterization of NAD^+-Dependent DNA Ligase from Wolbachia Endosymbiont of Lymphatic Filarial Parasite Brugia malayi” (PLoS ONE, 2012)

Substrate: NC(=O)c1ccc[n+]([C@@H]2O[C@H](COP(=O)(O)OP(=O)(O)OC[C@H]3O[C@@H](n4cnc5c(N)ncnc54)[C@H](O)[C@@H]3O)[C@@H](O)[C@H]2O)c1
Test: nick closing activity; fluorescein-labelled oligonucleotide ligated to biotinylated oligonucleotide on streptavidin plate
Assay type: biochemical, Wolbachia endosymbiont of Brugia malayi
Details: nicked DNA duplex substrate, 20 mM Tris-HCl pH 8.0, 10 mM MgCl2, 10 mM (NH4)2SO4, 1.2 mM EDTA, 25 °C, 5 nM enzyme, NAD+ 0-30 µM, varied: cofactor

B1: wBm-LigA (NAD+-dependent DNA ligase of Wolbachia endosymbiont of Brugia malayi) (Wolbachia endosymbiont strain TRS of Brugia malayi) (protein)
chain: MADLEKMIEEFTKLRDQISYHDVLYHQKSKPEIADAEYDKLKQKLVEMEGQLPGACVTQDGVGAAPDEKFSKIKHREPMLSLENAYDEQGVERFLSRIKRFLIEEEIEVFCEPKIDGLSFSAVYEDGRFVKAATRGDGFIGEDVTRNVATIKGFPRFLQDVQDRLEVRGEIYINNSDFLKLNKDNEFANPRNAAAGSLKQLDVSITANRPLKYFAYSLIGGKEKSQSEVLNRLESLGFCVNEHRSLTNNLSGMLEFYNKVYNCRYSLDYDIDGIVYKVNDLILQSRLGSTHKAPRSALAYKFSAVYAKTKLNKIFIQVGRTGVLTPVADLIPVNIGGVLVSRANLHNQDEIKRKDVREGDIVTIKRAGDVIPQIVRVDKGSRHADAPGFVFPEICPECGGKVQAEGAAIRCSEELTCKAQIIGKLSHFVSKGAFDIFGLGEKQIKFFYDLGLIKQIPDIFNLEERLNEFSLKEQPDWGERSIANLLNAIQNRRVITLDRFIFSLGIRFIGQVAAELLANYYVSYNNWYNSMIKLLSNDAEVGVGGVEKKIAKSFSDELVGIDGIGEKVAESLKSFFSKEHNIKMLKDLTDYLQILSVNSNSSNSVLNNKVIVFTGKLLTMSRGEAKVRAKALGAKVSSNLSAKIDYLVAGEKPGNKYKKAVELGVGILNEDQWYRMINSEVSE
notes: full length, 683 residues (ORF 2052 bp), pET28a(+), His6 tags at N and C terminus kept, expressed in E. coli Rosetta, Ni-NTA purified, ~75 kDa
For B1, which Km is on record?
Its Km is 4.8 µM.
